How the values were obtained:
Test in all cases: HPLC of glucoside product
Format in all cases: biochemical, Camellia sinensis
[1] = substrate: O=C(O)/C=C/c1ccc(O)cc1; conditions: UDP-glucose as sugar donor; optimum pH 6.5, 40 °C; pH 6.5; 40.0 °C
[2] = substrate: O=C(O)Cc1c[nH]c2ccccc12; conditions: UDP-glucose as sugar donor; optimum pH 6.5, 30 °C; pH 6.5; 30.0 °C
[3] = substrate: O=c1c(O)c(-c2ccc(O)cc2)oc2cc(O)cc(O)c12; conditions: UDP-glucose as sugar donor; optimum pH 9.5, 40 °C; pH 9.5; 40.0 °C

B1: rCsUGT84J2 (TEA000239) (Camellia sinensis) (protein)
chain: MAAMEKKEEIHVLMVAFSSQGHINPMLRLAKRLHSKGLHVTLATTEIARHRMLTSSSATTTAVAANSIDGISLAFFSDGLSLDYDRKTNLDHYMDSLGRAGPANLSSIILHHHSHGGRKFSCIVTNPFIPWAADVAAEHGIPCALLWIQPCSLYSIYYRFYNHLNQFPSSANPNMSVELPGLPLLNTEDLPSFVLPSNPFGSFPKLFCGLFQNMQKMKWVLANSFHELESQAIDSMFDIHPVLPIGPLVPPSILGEDQAVDAGVEMWKSEDNCIEWLDQQQPNSVIYVSFGSVVILSPLQMESIATGLKNCNRPFLWVVKKSDYTAKEGEGQLPLGFLEETKGRGLVVQWSPQIKVLMNPAVGCFLTHCGWNSMLETIAAGVPVIAYPQWTDQPTNAKLMAEVLRVGVRLRPNQDGVVTNEEVERRIEDVMCGPEAEEFREKAAELKVAARVAVADGGSSDRNIQLFVDEIIGDSST
- Km [1]: 0.243 µM
- Km [2]: 0.522 µM
- Km [3]: 0.127 µM
